Test results: patent US20010010923A1, “MODIFIED CARBOXYPEPTIDASE” (priority 1997, published 2001)
Positions count from the first letter of the chain named. In names and notes the source's numbering stands. Marks after values point to notes of the source that are not given here.

B1: L178S: carboxypeptidase Y S1 mutant, substitution L178S (protein, UniProt P00729 112-532, looked up, variant L178S)
Carboxypeptidase Y: KIKDPKILGIDPNVTQYTGYLDVEDEDKHFFFWTFESRNDPAKDPVILWLNGGPGCSSLTGLFFELGPSSIGPDLKPIGNPYSWNSNATVIFLDQPVNVGFSYSGSSGVSNTVAAGKDVYNFLELFFDQFPEYVNKGQDFHIAGESYAGHYIPVFASEILSHKDRNFNLTSVLIGNGSTDPLTQYNYYEPMACGEGGEPSVLPSEECSAMEDSLERCLGLIESCYDSQSVWSCVPATIYCNNAQLAPYQRTGRNVYDIRKDCEGGNLCYPTLQDIDDYLNQDYVKEAVGAEVDHYESCNFDINRNFLFAGDWMKPYHTAVTDLLNQDLPILVYAGDKDFICNWLGNKAWTDVLPWKYDEEFASQKVRNWTASITDEVAGEVKSYKHFTYLRVFNGGHMVPFDVPENALSMVNEWIHGGFSL
B2: Wild type: wild type (native) carboxypeptidase Y (protein, UniProt P00729 112-532, looked up)
Carboxypeptidase Y: B1 Carboxypeptidase Y with S178L
B3: L245E: carboxypeptidase Y S1 mutant, substitution L245E (protein, UniProt P00729 112-532, looked up, variant L245E)
Carboxypeptidase Y: B1 Carboxypeptidase Y with S178L, L245E
B4: N241E: carboxypeptidase Y S1 mutant, substitution N241E (protein, UniProt P00729 112-532, looked up, variant N241E)
Carboxypeptidase Y: B1 Carboxypeptidase Y with S178L, N241E
B5: W312D: carboxypeptidase Y S1 mutant, substitution W312D (protein, UniProt P00729 112-532, looked up, variant W312D)
Carboxypeptidase Y: B1 Carboxypeptidase Y with S178L, W312D

How the values were obtained:
[1] = Transpeptidation of Bz-G-A-R-A-R-X-OH at pH 6.5 at 50% substrate consumption, Table 5; type: biochemical; parameters: key to fa: fa = aminolysis product / sum of all products formed; conditions: for Pmax (peak product yield) / fa: 750 mM H-Leu-NH2; for fa / t: 50% substrate consumption; for t: 750 mM H-Leu-NH2, 2 mM substrate, [E] 0.1 mg/mL
Procedure: Transamidation reactions were carried out generally as described in PCT Application WO 95/20039. In general, the method included dissolving the nucleophile (H-Leu-NH2, unless otherwise indicated) in 50 mM HEPES, […], 5 μl of peptide substrate (8 mM Bz-G-A-R-A-R-A-OH, unless otherwise indicated, in methanol) was added to 190 μl nucleophile solution followed by 5 μl enzyme, resulting in a substrate concentration of 0.2 mM.
(§1) During the reaction, 20 μl aliquots were removed from the reaction mixture and added to 50 μl 1% trifluoroacetic acid to quench the reaction. The reactant composition was determined by HPLC using a Waters HPLC equipped with a C-18 Waters Novapac 4μ reverse phase column and various gradients of acetonitrile in 0.1% trifluoroacetic acid. The separation was monitored at 254 nm allowing the direct quantification of the products from the integrated peak areas. The composition of the reaction mixture was determined at least twvice during the reaction, the first when 20-50% (preferably 35%) of the substrate had been consumed in the reaction and the second time when 50-90% (preferably 80%) of the peptide substrate had been consumed.
The fraction of aminolysis (fa) was expressed as the ratio between the formed aminolysis product and the sum of all products formed. Unconsumed substrate was disregarded in the calculations. […]

[2] = Transamidation of Bz-G-A-R-A-R-A-OH, Table 6; type: biochemical; conditions: [S] = 2 mM; H-Leu-NH2 375 mM; pH 7.5; [E] 0.1 mg/mL
[3] = Transpeptidation of Bz-G-A-R-A-R-X-OH at pH 7.5 at 50% substrate consumption, Table 4; type: biochemical; parameters: key to fa: fraction: aminolysis product / sum of all products formed; conditions: for Pmax (peak product yield) / fa: 375 mM H-Leu-NH2
Outline: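 Transamidation was performed by dissolving the H-Leu-NH2 nucleophile in 50 mM HEPES with 5 mM EDTA at pH 7.5, then adding the Bz-G-A-R-A-R-X-OH peptide substrate in methanol followed by enzyme. Aliquots were quenched in 1% trifluoroacetic acid and analysed by C-18 reverse-phase HPLC at 254 nm. The fraction of aminolysis was the aminolysis product divided by all products formed.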

[4] = Transpeptidation of Bz-G-A-R-A-R-A-OH (arginine at P1) with H-Leu-NH2, Table 1; type: biochemical; conditions: 2mM substrate, pH 7.5, [E] 0.1 mg/mL
Procedure: The mutant carboxypeptidase enzvmes used in these studies were produced by site-directed mutagenesis, essentially following the procedures described in published PCT Patent Application No. WO 95/20039. In general, oligonucleotides synthesized to encode the amino acid substitution were used to produce the mutant enzymes.
(§2) Transamidation reactions were carried out generally as described in PCT Application WO 95/20039. In general, the method included dissolving the nucleophile (H-Leu-NH2, unless otherwise indicated) in 50 mM HEPES, 5 mM EDTA and adjusting the pH to 7.5, 5 μl of peptide substrate (8 mM Bz-G-A-R-A-R-A-OH, unless otherwise indicated, in methanol) was added to 190 μl nucleophile solution followed by 5 μl enzyme, […]
as §1
The reaction products were collected and identified by amino acid analysis after acid hydrolysis using a Pharmacia Alpha Plus analyzer. Further identification was obtained by co-chromatography of authentic standard compounds.
(§3) The fraction of aminolysis (fa) was expressed as the ratio between the formed aminolysis product and the sum of all products formed. Unconsumed substrate was disregarded in the calculations.

[5] = Transamidation of Bz-G-A-R-A-R-A-OH, Table 6; type: biochemical; conditions: H-Leu-NH2 375 mM, pH 7.5, [E] 0.1 mg/mL
Procedure: as §2, §1, §3
Site specific mutagenesis was performed as described for Example 1 to generate the specific mutants described below. Transamidation reactions were performed as described in the previous examples.

[6] = Transamidation of FA-Arg-Ala-OH, Table 6; type: biochemical; conditions: H-Leu-NH2 375 mM, pH 7.5, [E] 0.1 mg/mL
[7] = Transpeptidation of FA-Ala-Xaa-OH with H-Gly-NH2, Table 2; type: biochemical; conditions: 1.9 M H-Gly-NH2, pH 7.5, room temperature
Outline: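 Enzyme reacted with 0.2 mM peptide substrate and nucleophile in 50 mM HEPES, 5 mM EDTA, pH 7.5; aliquots quenched in 1% TFA. Products quantified by reverse-phase HPLC at 254 nm at two conversion points (20-50% and 50-90% substrate consumed). Fraction of aminolysis = aminolysis product over all products, ignoring unconsumed substrate.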

[8] = ratio of hydrolysis rates, background statement; cited from earlier work
[9] = Transpeptidation of FA-Ala-OBzl with H-Leu-NH2, Table 3; type: biochemical; conditions: FA-Ala-OBzl 0.2 mM; H-Leu-NH2; pH 7.5
Outline: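 Site-directed mutant enzymes were reacted with H-Leu-NH2 in 50 mM HEPES, 5 mM EDTA, pH 7.5, with acyl-donor substrate at 0.2 mM final. Products were quantified by C-18 RP-HPLC at 254 nm at about 35% and 80% substrate consumption. fa is aminolysis product over all products; famax is fa at nucleophile saturation, and KN(app) is the nucleophile concentration giving famax/2.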

[10] = leaving group A, 50% substrate consumption
[11] = leaving group A, 50% substrate consumption, 375 mM H-Leu-NH2, 2 mM substrate, [E] 0.1 mg/mL
[12] = leaving group I, 50% substrate consumption
[13] = leaving group L, 50% substrate consumption
[14] = leaving group M, 50% substrate consumption
[15] = leaving group V, 50% substrate consumption

| Molecule | fa [2] | Pmax (peak product yield) ([3]; leaving group A) | fa [3, 10] | Pmax (peak product yield) ([3]; leaving group I) | fa [3, 12] | Pmax (peak product yield) ([3]; leaving group L) | fa [3, 13] | Pmax (peak product yield) ([3]; leaving group M) | fa [3, 14] | Pmax (peak product yield) ([3]; leaving group V) | fa [3, 15] | fa (fraction of aminolysis) ([4]; [N] 375 mM H-Leu-NH2) | Pmax ([5]; [S] = 2 mM) | Pmax ([6]; [S] = 2 mM) | fa ([6]; [S] = 2 mM) | fa (fraction of aminolysis) ([4]; [N] 50 mM H-Leu-NH2) | further results |
| --- | --- | --- | --- | --- | --- | --- | --- | --- | --- | --- | --- | --- | --- | --- | --- | --- | --- |
| B1 | 0.77 | 0.63 | 0.73 | 0 | 0 | 0.01 | 0.01 | 0 | 0 | 0 | 0 | 0.72 | 0.61 | 0.76 | 0.89 | – | Pmax (peak product yield) ([1]; leaving group A): 0.74; fa ([1]; leaving group A): 0.79; t ([1]; leaving group A): 34 min; Pmax (peak product yield) ([1]; leaving group L): 0.03; fa ([1]; leaving group L): 0.03; t ([1]; leaving group L): 17 min; Pmax (peak product yield) ([1]; leaving group S): 0.63; fa ([1]; leaving group S): 0.34; t ([1]; leaving group S): 108 min; t [3, 11]: 14 min; t ([3]; leaving group I, 50% substrate consumption, 375 mM H-Leu-NH2, 2 mM substrate, [E] 0.1 mg/mL): 26 min; t ([3]; leaving group L, 50% substrate consumption, 375 mM H-Leu-NH2, 2 mM substrate, [E] 0.1 mg/mL): 2.1 min; t ([3]; leaving group M, 50% substrate consumption, 375 mM H-Leu-NH2, 2 mM substrate, [E] 0.1 mg/mL): 28 min; Pmax (peak product yield) ([3]; leaving group S): 0.38; fa ([3]; leaving group S, 50% substrate consumption): 0.65; t ([3]; leaving group S, 50% substrate consumption, 375 mM H-Leu-NH2, 2 mM substrate, [E] 0.1 mg/mL): 790 min; t ([3]; leaving group V, 50% substrate consumption, 375 mM H-Leu-NH2, 2 mM substrate, [E] 0.1 mg/mL): 40 min |
| B2 | – | 0 | <0.05 | 0 | <0.05 | 0 | <0.05 | 0 | <0.05 | 0 | <0.05 | 0.05 | – | – | – | – | Fraction of aminolysis (fa), P1' Ala ([7]; FA-Ala-Ala-OH 0.2 mM): 0.90; Fraction of aminolysis (fa), P1' Leu ([7]; FA-Ala-Leu-OH 0.2 mM): 0.20; Fraction of aminolysis (fa), P1' Met ([7]; FA-Ala-Met-OH 0.2 mM): 0.18; Fraction of aminolysis (fa), P1' Phe ([7]; FA-Ala-Phe-OH 0.2 mM): 0.04; Fraction of aminolysis (fa), P1' Val ([7]; FA-Ala-Val-OH 0.2 mM): 0.16; FA-Arg-Ala-OH hydrolyzed more slowly than FA-Leu-Ala-OH [8]: about 500 times; fa [9]: 0.95^a; t(min) [3, 11]: ca. 110000 min |
| B3 | 0.20 | – | – | – | – | – | – | – | – | – | – | 0.18 | 0.09 | 0.73 | 0.83 | 0.07 | – |
| B4 | 0.47 | – | – | – | – | – | – | – | – | – | – | – | 0.25 | – | 0.92 | 0.27 | Pmax ([5]; [S] = 0.2 mM): 0.25; fa ([5]; [S] = 0.2 mM): 0.43; Pmax ([6]; [S] = 0.2 mM): 0.49; fa ([6]; [S] = 0.2 mM): 0.70 |
| B5 | 0.16 | – | – | – | – | – | – | – | – | – | – | 0.15 | 0.08 | 0.67 | 0.77 | – | – |
